According to PMC12241816:

Biological target: T1, recombinant KDM5B (human), Q9UGL1
T1 chain: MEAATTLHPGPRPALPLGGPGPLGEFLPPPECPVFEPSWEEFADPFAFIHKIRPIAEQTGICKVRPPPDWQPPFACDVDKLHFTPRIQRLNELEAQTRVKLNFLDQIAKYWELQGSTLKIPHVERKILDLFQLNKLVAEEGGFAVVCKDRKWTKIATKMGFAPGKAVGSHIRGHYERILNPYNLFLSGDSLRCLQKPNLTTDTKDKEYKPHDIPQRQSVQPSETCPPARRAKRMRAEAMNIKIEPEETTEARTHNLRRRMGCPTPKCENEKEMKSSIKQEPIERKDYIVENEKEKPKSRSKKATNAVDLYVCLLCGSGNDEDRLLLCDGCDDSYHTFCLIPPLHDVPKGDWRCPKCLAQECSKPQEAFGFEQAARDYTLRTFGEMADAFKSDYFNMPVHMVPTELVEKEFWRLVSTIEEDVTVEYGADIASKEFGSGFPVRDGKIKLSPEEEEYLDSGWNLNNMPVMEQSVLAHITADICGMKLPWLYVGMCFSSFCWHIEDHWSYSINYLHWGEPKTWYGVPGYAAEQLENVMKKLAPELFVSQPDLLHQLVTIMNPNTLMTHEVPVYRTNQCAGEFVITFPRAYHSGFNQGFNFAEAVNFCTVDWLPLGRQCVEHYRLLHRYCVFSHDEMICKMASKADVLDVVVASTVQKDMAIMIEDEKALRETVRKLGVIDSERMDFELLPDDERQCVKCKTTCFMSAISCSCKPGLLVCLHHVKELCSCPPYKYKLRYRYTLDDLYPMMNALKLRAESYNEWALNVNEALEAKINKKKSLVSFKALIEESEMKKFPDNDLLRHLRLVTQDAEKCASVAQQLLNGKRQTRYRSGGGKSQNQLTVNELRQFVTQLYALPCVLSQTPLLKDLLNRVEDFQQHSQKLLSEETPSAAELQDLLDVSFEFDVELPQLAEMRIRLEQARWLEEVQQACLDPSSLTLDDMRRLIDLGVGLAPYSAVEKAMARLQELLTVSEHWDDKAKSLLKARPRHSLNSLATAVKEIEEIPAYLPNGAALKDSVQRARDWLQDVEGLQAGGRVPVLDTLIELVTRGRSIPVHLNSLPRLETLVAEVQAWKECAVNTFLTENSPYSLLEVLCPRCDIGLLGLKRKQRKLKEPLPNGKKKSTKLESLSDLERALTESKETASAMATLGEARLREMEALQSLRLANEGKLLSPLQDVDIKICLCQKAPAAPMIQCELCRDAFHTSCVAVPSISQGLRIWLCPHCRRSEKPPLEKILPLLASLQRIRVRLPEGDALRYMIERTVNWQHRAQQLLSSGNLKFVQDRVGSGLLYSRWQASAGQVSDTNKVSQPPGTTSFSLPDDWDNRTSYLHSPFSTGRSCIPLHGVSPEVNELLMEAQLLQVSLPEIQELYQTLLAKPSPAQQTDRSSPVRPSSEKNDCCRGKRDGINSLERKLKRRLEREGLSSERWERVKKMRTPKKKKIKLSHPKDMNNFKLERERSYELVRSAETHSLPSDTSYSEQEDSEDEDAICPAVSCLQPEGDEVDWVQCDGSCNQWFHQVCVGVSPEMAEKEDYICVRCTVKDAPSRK
Assay: native gel or EMSA
Details: remark: other sources report otherwise

stoichiometry N: 2
B1: recombinant KDM5B, Q9UGL1 1-1544 (natural protein)
chain: T1 chain
